This assay deals with wild type human presenilin 1 (PS1) (human, UniProt P49768 1-467). In words: cell-based or functional assay.

B1: PAMPΔ312-369 (other, not shown: small tags and cut ends)
chain: NSVERKIYIPLNKTAPCVRLLNATHQIGCQSSISGDTGVIHVVEKEEDLQWVLTDGPNPPYMVLLESKHFTRDLMEKLKGRTSRIAGLAVSLTKPSPASGFSPSVQCPNDGFGVYSNSYGPEFAHCREIQWNSLGNGLAYEDFSFPIFLLEDENETKVIKQCYQDHNLSQNGSAPTFPLCAMQLFSHMHAVISTATCMRRSSIQSTFSINPEIVCDPLSDYNVWSMLKPINTTGTLKPDDRVVVAATRLDSRSFFWNVAPGAESAVASFVTQLAAAEALRTSLELWMHTDPVSQKNESVRNQVEDLLATLEKSGAGVPAVILRRPNQSQPLPPSSLQRFLRARNISGVVLADHSGAFHNKYYQSIYDTAENINVSYPEWLSPEEDLNFVTDTAKALADVATVLGRALYELAGGTNFSDTVQADPQTVTRLLYGFLIKANNSWFQSILRQDLRSYLGDGPLQHYIAVSSPTNTTYVVQYALANLTGTVVNLTREQCQDPSKVPSENKDLYEYSWVQGPLHSNETDRLPRCVRSTARLARALSPAFELSQWSSTEYSTWTESRWKDIRARIFLIASKELELITLTVGFGILIFSLIVTYCINAKADVLFIAPREPGAVSY
As for B1, the “Aβ42/Aβ40 Ratio” value is 0.09 normalized to mock transfection (1.0).

B2: PAMPΔ312-340 (other, not shown: small tags and cut ends)
chain: NSVERKIYIPLNKTAPCVRLLNATHQIGCQSSISGDTGVIHVVEKEEDLQWVLTDGPNPPYMVLLESKHFTRDLMEKLKGRTSRIAGLAVSLTKPSPASGFSPSVQCPNDGFGVYSNSYGPEFAHCREIQWNSLGNGLAYEDFSFPIFLLEDENETKVIKQCYQDHNLSQNGSAPTFPLCAMQLFSHMHAVISTATCMRRSSIQSTFSINPEIVCDPLSDYNVWSMLKPINTTGTLKPDDRVVVAATRLDSRSFFWNVAPGAESAVASFVTQLAAAEASRMVYDMEKGKFPVQLENVDSFVELGQVALRTSLELWMHTDPVSQKNESVRNQVEDLLATLEKSGAGVPAVILRRPNQSQPLPPSSLQRFLRARNISGVVLADHSGAFHNKYYQSIYDTAENINVSYPEWLSPEEDLNFVTDTAKALADVATVLGRALYELAGGTNFSDTVQADPQTVTRLLYGFLIKANNSWFQSILRQDLRSYLGDGPLQHYIAVSSPTNTTYVVQYALANLTGTVVNLTREQCQDPSKVPSENKDLYEYSWVQGPLHSNETDRLPRCVRSTARLARALSPAFELSQWSSTEYSTWTESRWKDIRARIFLIASKELELITLTVGFGILIFSLIVTYCINAKADVLFIAPREPGAVSY
B2: the “Aβ42/Aβ40 Ratio” value is 0.59 normalized to mock transfection (1.0).
